From US20090062197A1 (FULCRUM SP, published 2009)

B1: SP1 variant Δ2-6 E72C (other)
chain: MKLVKHTLLTRFKDEITREQIDNYINDYTNLLDLIPSMKSFNWGTDLGMESAELNRGYTHAFESTFCSKSGLQEYLDSAALAAFAEGFLPTLSQRLVIDYFLY
B2: 6HSP1 (six histidine N-terminal tagged SP1) (other)
chain: MHHHHHHATRTPKLVKHTLLTRFKDEITREQIDNYINDYTNLLDLIPSMKSFNWGTDLGMESAELNRGYTHAFESTFESKSGLQEYLDSAALAAFAEGFLPTLSQRLVIDYFLY
notes: also called 6H2; SP1 6H
B3: SP1 variant Cys2loop1RGd (Cys2 K18R Gly19) (other)
chain: MCATRTPKLVKHTLLTRFRGDEITREQIDNYINDYTNLLDLIPSMKSFNWGTDLGMESAELNRGYTHAFESTFESKSGLQEYLDSAALAAFAEGFLPTLSQRLVIDYFLY
B4: SP1 variant Δ2-6 L81C (other)
chain: MKLVKHTLLTRFKDEITREQIDNYINDYTNLLDLIPSMKSFNWGTDLGMESAELNRGYTHAFESTFESKSGLQEYCDSAALAAFAEGFLPTLSQRLVIDYFLY
B5: SP1 variant F106A 6XH2 (other)
chain: MHHHHHHATRTPKLVKHTLLTRFKDEITREQIDNYINDYTNLLDLIPSMKSFNWGTDLGMESAELNRGYTHAFESTFESKSGLQEYLDSAALAAFAEGFLPTLSQRLVIDYALY
B6: SP1 variant S73A S75A 6XH2 (other)
chain: MHHHHHHATRTPKLVKHTLLTRFKDEITREQIDNYINDYTNLLDLIPSMKSFNWGTDLGMESAELNRGYTHAFESTFEAKAGLQEYLDSAALAAFAEGFLPTLSQRLVIDYFLY
B7: SP1 variant D38A S75A 6XH2 (other)
chain: MHHHHHHATRTPKLVKHTLLTRFKDEITREQIDNYINDYTNLLALIPSMKSFNWGTDLGMESAELNRGYTHAFESTFESKAGLQEYLDSAALAAFAEGFLPTLSQRLVIDYFLY
B8: SP1 variant N31A T34A 6XH2 (other)
chain: MHHHHHHATRTPKLVKHTLLTRFKDEITREQIDNYIADYANLLDLIPSMKSFNWGTDLGMESAELNRGYTHAFESTFESKSGLQEYLDSAALAAFAEGFLPTLSQRLVIDYFLY
B9: SP1 variant Δ2-6 His2 (other)
chain: MHKLVKHTLLTRFKDEITREQIDNYINDYTNLLDLIPSMKSFNWGTDLGMESAELNRGYTHAFESTFESKSGLQEYLDSAALAAFAEGFLPTLSQRLVIDYFLY
B10: SP1 (wild type, stress related SP1 protein from aspen) (other)
chain: MATRTPKLVKHTLLTRFKDEITREQIDNYINDYTNLLDLIPSMKSFNWGTDLGMESAELNRGYTHAFESTFESKSGLQEYLDSAALAAFAEGFLPTLSQRLVIDYFLY
notes: Full length SP1 without any additional tag, expressed in E. coli; it self-assembles into a dodecamer; also called WT; wild type SP1
B11: SP1 variant N31A (other)
chain: MATRTPKLVKHTLLTRFKDEITREQIDNYIADYTNLLDLIPSMKSFNWGTDLGMESAELNRGYTHAFESTFESKSGLQEYLDSAALAAFAEGFLPTLSQRLVIDYFLY
B12: SP1 variant D38A (other)
chain: MATRTPKLVKHTLLTRFKDEITREQIDNYINDYTNLLALIPSMKSFNWGTDLGMESAELNRGYTHAFESTFESKSGLQEYLDSAALAAFAEGFLPTLSQRLVIDYFLY
B13: SP1 variant I30A (other)
chain: MATRTPKLVKHTLLTRFKDEITREQIDNYANDYTNLLDLIPSMKSFNWGTDLGMESAELNRGYTHAFESTFESKSGLQEYLDSAALAAFAEGFLPTLSQRLVIDYFLY
B14: SP1 variant D27A (other)
chain: MATRTPKLVKHTLLTRFKDEITREQIANYINDYTNLLDLIPSMKSFNWGTDLGMESAELNRGYTHAFESTFESKSGLQEYLDSAALAAFAEGFLPTLSQRLVIDYFLY
B15: SP1 variant T34A (other)
chain: MATRTPKLVKHTLLTRFKDEITREQIDNYINDYANLLDLIPSMKSFNWGTDLGMESAELNRGYTHAFESTFESKSGLQEYLDSAALAAFAEGFLPTLSQRLVIDYFLY
B16: SP1 variant E68A (other)
chain: MATRTPKLVKHTLLTRFKDEITREQIDNYINDYTNLLDLIPSMKSFNWGTDLGMESAELNRGYTHAFASTFESKSGLQEYLDSAALAAFAEGFLPTLSQRLVIDYFLY
B17: SP1 variant Y108A (other)
chain: MATRTPKLVKHTLLTRFKDEITREQIDNYINDYTNLLDLIPSMKSFNWGTDLGMESAELNRGYTHAFESTFESKSGLQEYLDSAALAAFAEGFLPTLSQRLVIDYFLA
B18: SP1 variant R23A (other)
chain: MATRTPKLVKHTLLTRFKDEITAEQIDNYINDYTNLLDLIPSMKSFNWGTDLGMESAELNRGYTHAFESTFESKSGLQEYLDSAALAAFAEGFLPTLSQRLVIDYFLY
B19: SP1 variant Δ2-6 I40C (other)
chain: MKLVKHTLLTRFKDEITREQIDNYINDYTNLLDLCPSMKSFNWGTDLGMESAELNRGYTHAFESTFESKSGLQEYLDSAALAAFAEGFLPTLSQRLVIDYFLY
B20: ΔNSP1 (N-terminal deleted SP1, deletion of amino acids 2-6) (other)
chain: MKLVKHTLLTRFKDEITREQIDNYINDYTNLLDLIPSMKSFNWGTDLGMESAELNRGYTHAFESTFESKSGLQEYLDSAALAAFAEGFLPTLSQRLVIDYFLY
notes: Recombinant variant, E. coli; also called Δ2-6; SP1 ΔN
B21: SP1 variant Δ2-7 Cys2 (other)
chain: MCLVKHTLLTRFKDEITREQIDNYINDYTNLLDLIPSMKSFNWGTDLGMESAELNRGYTHAFESTFESKSGLQEYLDSAALAAFAEGFLPTLSQRLVIDYFLY
B22: SP1 variant HH2 (other)
chain: MHHATRTPKLVKHTLLTRFKDEITREQIDNYINDYTNLLDLIPSMKSFNWGTDLGMESAELNRGYTHAFESTFESKSGLQEYLDSAALAAFAEGFLPTLSQRLVIDYFLY
B23: CRGD SP1 (tumor recognition peptide CRGD inserted into the SP1 N-terminus) (other)
chain: MCRGDATRTPKLVKHTLLTRFKDEITREQIDNYINDYTNLLDLIPSMKSFNWGTDLGMESAELNRGYTHAFESTFESKSGLQEYLDSAALAAFAEGFLPTLSQRLVIDYFLY
notes: also called CRGD2
B24: RGDC SP1 (tumor recognition peptide RGDC inserted into the SP1 N-terminus) (other)
chain: MRGDCATRTPKLVKHTLLTRFKDEITREQIDNYINDYTNLLDLIPSMKSFNWGTDLGMESAELNRGYTHAFESTFESKSGLQEYLDSAALAAFAEGFLPTLSQRLVIDYFLY
notes: also called RGDC2

Target: the molecule itself
Experiment: homo-oligomer complex formation after inclusion body refolding (footnote 10), SDS-PAGE, proteinase digestion of monomers
Excerpt: Complex assembly was confirmed by eliminating the monomeric forms using proteinase digestion.

Binder | binding result
B1 | binds

Target: B20
Experiment: co-electro-elution of monomers, Ni-NTA pull-down, Proteinase K, SDS-PAGE
Description: Protein samples were prepared in SDS-sample buffer with excess ratio of SDS to the sample, either boiled (b) for 5 min, or without boiling (nb). […] The hetero-oligomeric complex was isolated on Ni-NTA Agarose beads (lanes 6 and 7).
The denatured proteins were then separated in preparative SDS-PAGE, and visualized by Coomassie blue staining. The monomeric forms of two recombinant protein bands were excised. […] In order to enhance the surface/volume ratio, the gel slices were pulverized using a pestle and mortar in the presence of liquid nitrogen.

Binder | binding result
B2 | binds

Target: the molecule itself
Experiment: homo-oligomer complex formation after inclusion body refolding, SDS-PAGE, proteinase digestion of monomers
Description: The pellet (FIG. 5a, lane 3) was discarded, and the supernatant was collected and dialyzed against buffer with 2 mM DTT for four days (FIG. 5a, lane 4).

Binder | binding result
B3 | binds
B4 | binds

Target: the molecule itself
Experiment: homo-oligomer complex formation, SDS-PAGE of unboiled samples

Binder | binding result
B5 | binds
B6 | binds
B7 | binds
B8 | binds
B2 | binds
B9 | binds
B10 | binds
B11 | binds
B12 | binds
B13 | binds
B14 | binds
B15 | binds
B16 | binds
B17 | binds
B18 | binds
B19 | binds
B20 | binds
B21 | binds
B22 | binds
B23 | binds
B24 | binds
